Positions count from the first letter of the chain named. Converted amounts (≈) assume the structure as drawn.
B1: No.76: mouse monoclonal anti-LPS O11 antibody prepared using pJON mIgG2a and pJON mIgκ; variable regions SEQ ID NO: 8 and 4 (antibody, V domains shown)
VH: MGWSCIILFLVAAATGVHSQVQLQQPGAELVKPGASVNLSCKSSGYTFTNYWINWVKQRPGQGLEWIGDIYPGTSTTNYNEKFKNKATLTVDTSSSTAYMQLSSLTSDDSAVYYCTRIYYDYDGYYFDYWGQGTTLTVSS
VL: MESQTLVFISILLWLYGADGNIVMTQSPKSMSMSVGERVTLSCKASENVGTSVSWYQEKPEQSPKLLIFGASNRYTGVPDRFTGSGSATDFTLTISSVQAEDLADYHCGQSYSYPYTFGGRTKLEIKRA
modifications: Heavy chain variable of No.76; Light chain variable of No.76
B2: #4C12: anti-LPS O11 monoclonal antibody prepared using pJON mIgG2a-hIgG1 and pJON mIgκ; variable regions SEQ ID NO: 24 and 20 (antibody, V domains shown)
VH: MGWSCIILFLVAAATGVQSQVQLQQPGAELVKPGASVKLSCKASGYTFTTYWINWMQQRPGQGLEWIGNIYPGTRSSNYNEKFKNKATLTVDTSSSTAYMQLNSLTSDDSAVYYCTRVYYDHVGYYFDYWGQGTTLTVSS
VL: B1 VL with T51V, E58Q, F69Y, Y75C, G86R, I95V, S97N, R121G, K123R
modifications: Heavy chain variable of #4C12; Light chain variable of #4C12
B3: #1G5: anti-LPS O11 monoclonal antibody prepared using pJON mIgG2a-hIgG1 and pJON mIgκ; variable regions SEQ ID NO: 16 and 12 (antibody, V domains shown)
VH: MGWSCIILFLVAAATGVHSQVQLQQPGAELVKPGASVKLSCKASGYTFTSYWINWVKQRPGQGLEWIGNIYPGSSSINYNEKFKSKATLTVDTSSSTAYMQLSSLTSDDSAVYYCSRTIYNYGSSGYNYAMDYWGQGTSVIVSS
VL: B1 VL with A18S, T51N, E58Q, P60A, L66P, F69Y, R121G
modifications: Heavy chain variable of #1G5; Light chain variable of #1G5

Columns and labels:
[1] = test system: Pseudomonas aeruginosa clinical isolates No. 12 and No. 31; experiment: Minimum inhibitory concentration of LVFX against clinical isolates; type: cell-based
[2] = test system: Pseudomonas aeruginosa ATCC 29260; experiment: Opsonophagocytic killing activity against Pseudomonas aeruginosa ATCC 29260; type: cell-based; settings: antibody culture supernatant samples
Protocol: As a buffer for measurement, 0.1% gelatin/1% FBS/Hank's balanced salt solution (opsonization buffer) was prepared. HL60 as effector cells were cultured in 10% FBS-containing RPMI 1640 (Invitrogen) supplemented with 0.8% N,N-dimethylformamide for 5 or 6 days to prepare neutrophil-like, differentiated HL60 in an opsonization buffer. As the target bacteria, Pseudomonas aeruginosa ATCC 29260 cultured on MHA was prepared by suspending it in the opsonization buffer. As a complement, Baby Rabbit Serum (Cederlane) was prepared by dissolving it with ice-cold distilled water. Bacterial suspension (final concentration of 2×10^4 cells/ml) was mixed with antibody culture supernatant or purified antibody, allowed to stand at 4° C. for 30 minutes, and the prepared neutrophil-like, differentiated HL60 cells (final concentration of 4×10^6 cells/ml) and a complement (final concentration 10%) were added thereto, followed by incubation with gentle agitation at 37° C. for 1 hour under 5% CO2. After the incubation, each sample was spread on MHA, and colonies were counted on the next day.
Opsonophagocytic killing activity of each of cNo.76, c#1G5M, c#1G5, c#4C13KM, c#4C13, Meiji 1640, Meiji 1656, and 1BO11 hIgG1 against Pseudomonas aeruginosa ATCC 29260 was measured in accordance with the method of 1)-3-2. The opsonophagocytic killing activity was expressed in terms of 50% minimum growth inhibitory concentration.
In accordance with the method of 1)-3-2, the opsonophagocytic killing activities of h#1G5-H2/L2, h#1G5-H3/L3, h#4C13K-H2/L2, and h#4C13k-H3/L3 against ATCC 29260 were measured, and then compared to those of c#1G5 and c#4C13. The opsonophagocytic killing activity was expressed in terms of 50% minimum growth inhibitory concentration.

| Molecule | MIC ([1]; No. 12 strain) | MIC ([1]; strain No. 31) | opsonophagocytic killing activity in screening [2] |
| --- | --- | --- | --- |
| C[C@H]1COc2c(N3CCN(C)CC3)c(F)cc3c(=O)c(C(=O)O)cn1c23 [LVFX, levofloxacin] | > 128 µg/mL | 32 µg/mL (≈ 88.6 µM) | – |
| B1 | – | – | strong opsonophagocytic killing activity |
| B2 | – | – | strong opsonophagocytic killing activity |
| B3 | – | – | strong opsonophagocytic killing activity |

From US9951123B2, “Anti-LPS O11 antibody” (priority 2013, dated 2018)
